Test system: MS2 coat protein
Assay: apparent KD of MS2 coat protein; higher = weaker reporter binding
Conditions: Eterna round: R107
Outline: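 Apparent KD is reported per design as the median of normalised binding-curve fits across its clusters. The RNA switches were made by on-chip transcription from Illumina sequencing clusters. SNAP-549-labelled MS2 coat protein was then added in twofold steps (0.7 or 1.5 nM to 3 µM; 0.8–1.5 h to 10–20 min per step) in 100 mM Tris-HCl pH 7.5, 80 mM KCl, 4 mM MgCl2, without or with constant ligand.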

[1] = input ligand: theophylline 20 uM
[2] = input ligand: tryptophan 2.4 mM
[3] = input ligand: theophylline 2 mM

Sequence	apparent KD of MS2 coat protein (input ligand: arginine 13.2 mM)	apparent KD of MS2 coat protein [1]	apparent KD of MS2 coat protein [2]	apparent KD of MS2 coat protein [3]	apparent KD of MS2 coat protein (input ligand: none)
AAUAACAUGAGGAUCACCCAUGUAAAAGAUACCAGAUGCAUGAUGAUCCCUUGGCAGCUUAAACGCGAUUGAUUACAAUCGCGAA [Mat - Same State Theophlline A - Mod of Eli - D10]	40.9 nM	71.9 nM	21.2 nM		
GCUAGGUCAUCGGCCGCCACUAUUAGUGGUUCGAACAUGAGGAUCACCCAUGUGCCACAUGCGCAUAGGACCGGGAUGACCUAGC [SSTB NP+V+V2 #8]	11.8 nM	18.2 nM		13.7 nM	
ACCUCAAUGGAUGAUACCAGCUCAAGGACGAACAUGAGGAUCACCCAUGUGACGUGGUGUAGCCCUUGGCAGCAUACUGACACCU [theeternabot_sameState_MS2_Theo_B_24]	34.6 nM	49 nM	39.1 nM		
UGCAAAUGAUGAGAUACCAGUUCAGUUAAAUACAUGAGGAUCACCCAUGUCAGGGAACUCAACCCUUGGCAGCUCGAUGCACUCA [theeternabot_sameState_MS2_Theo_B_43]	48 nM	56.7 nM	59 nM		
UAGUCCGCGACGGCCGCCACUCGCUGAUGCACAUGUGUCCGGGACAUGAGGAUCACCCAUGUUUCGAGGACCGGGUCGAUCCUAA [Same State Tryptophan B GF 5]	37.5 nM	81.5 nM		91.6 nM	
AUGUCGUUGAAUAUAGCGGCUUGGUGUGAUACCAGAAUGAUCUAAUUCCCUUGGCAGCAUUACAUGAGGAUCACCCAUGUUUAGG [SSTheo A #19]	24.4 nM	29.6 nM	28.8 nM		
GAUGAUAUUGCAGAUACCAGACACAUGAGGAUCACCCAUGUCUCUGAGAUGAAGGAUCGUGUCCCUUGGCAGCUGCGAUAUCAUC [Bulgaria]	25.1 nM	72.9 nM	30.3 nM		
UUUUUCGCGGGCGAUACCAGCUUGAUCGUACUGGCCUGGUACAUGAGGAUCACCCAUGUAAGCCCUUGGCAGCGCGCGGGAGAAG [Exclusion - Theophylline B Attempt #1 (HarryS)]	11.5 nM	14.6 nM	15.2 nM	20.2 nM	12.7 nM
CAUCAUGGGCUUGGACAAAUUGUGCUUGAUACCAGAAAUCACCGGUUCCCUUGGCAGCAACCCACAUGAGGAUCACCCAUGUGGA [theeternabot_exclusion_MS2_Theo_A_4]	18.6 nM	20.1 nM	23 nM		
GCAUCCUAGUCGGCCGCCACUGACAUGAGGAUCACCCAUGUACAUGAGGAUCACCCAUGUUGUAACAGGACCGGGACUAGGAUGC [SS Tryp B #18]	69.3 nM	112 nM		141 nM	
AUCUUUGACGAUCUGGGAAAACCAGAUCGGCGAGGACCGGUACGGCCGCCACUCGUGUAUAAUAUACAUGAGGAUCACCCAUGUA [#19 Tryptophan A Same State]	27.3 nM	61.3 nM		53.9 nM	
GGAAUAAUGGCGGCCGCCACUAACUCAUAUACAUCAUGUACAUGAGGAUCACCCAUGUAGGUGUAUAGGACCGGGCCAUAAUUCC [39MS split4]	20.1 nM	27.3 nM		25.1 nM	
AAUUAUCAGUCGGCCGCCACUGACACAUGAGGAUCACCCAUGUAAUAUGGGUAAAAUUAACUGAACAGGACCGGGACAAAUGCUA [JR_SSTryptoB_Sub021]	135 nM	472 nM		803 nM	
GCAUCCUAGUCGGCCGCCACUGCAUGUAGUUUUGCUACAUGGAAACAUGAGGAUCACCCAUGUAGCAGGACCGGGACUAGGAUGC [(Trp1)-(TM)''-(TM)'-(Ms2)-(Trp2)_Design7]	30.7 nM	36.2 nM		36 nM	
CAAUAUAUAUGAAGGAGCGUCGAAAAUGGGUAAACAUGAGGAUCACCCAUGUAAAGGGAACGACAGGUAGGUCGCAUAUGUAUUG [AstromonsSSArgB#9]	171 nM	195 nM	190 nM	261 nM	165 nM
GGACUAACCAGAAGGAGCGGCGCGCAGAAACUGCUAAUUCCUCCGCACGAGGAUCACCCGUGUCAGGUAGGUCGCUGGUUAGUCG [ArgBX 28]	10.3 nM	12.4 nM	11 nM	13.4 nM	
GGUUACUCUACGGCCGCCACUGGGCAUGUAAAUAACAUGAGGAUCACCCAUGUGGAUUAAAAUUACAGGACCGGGUAGUGUAACC [Tryptophan B 21]	86.6 nM	239 nM	36.1 nM	345 nM	300 nM
CCUCAAUAGACGGCCGCCACUGAAACAUGAGGAUACAUGAGGAUCACCCAUGUGGGUGUGUUACGCAGGACCGGGUCAAGACCCG [Tryp B SS t1]	304 nM	435 nM		1280 nM	
AUGCCUAGUGGAAGGAGCGAGGGUCCUCUCAACAUGAGGAUCACCCAUGUUCUUUUGCACCCUCAGGUAGGUCGCCAUUGGGACA [Veanaris]	30.8 nM	92.4 nM	76 nM	65.8 nM	59.8 nM

Sequence	apparent KD of MS2 coat protein (input ligand: arginine 13.2 mM)	apparent KD of MS2 coat protein [1]	apparent KD of MS2 coat protein [2]	apparent KD of MS2 coat protein [3]	apparent KD of MS2 coat protein (input ligand: none)
AAAAGAGGUGGAAGGAGCGGGAGACAUGAGGAUCACCCAUGUGAAGUUACGAAAGGUUCAGCCCAGGUAGGUCGCCAUGUCGAAA [eefemullin]	1.33 nM	55.1 nM	33.7 nM	58.8 nM	17.5 nM
AAUAAUAUGAGGAUCACCCAUAUAAAAGAUACCAGAGUGAUGAUCCUCCCUUGGCAGCUUAACGCUGAUUGAUUACAAUCAGCGA	68.7 nM	85 nM	25.5 nM	234 nM	47.5 nM
CAAUCUACCACCGGCCUACUGUACACUCGCCGAGGACCGGUACGGCCGCCACUCGACGUUCGACAUGAGGAUCACCCAUGUGGGU [theeternabot_exclusion_MS2_Trp_A_14]	80.1 nM	200 nM		289 nM	
AAAGAACAUGAGGAUCACCCAUGUACCGAAGGAGCGGCGAAGAAGCCAGGUAGGUCGCGGAACAUGAAGCGAUUAAGAAUUAAUU	21.5 nM	25.7 nM	20.4 nM	21 nM	19.3 nM
UGUAUGUGAUCUGAUACCAGAGUGACGCGAAAGCGAUAACCUGAGGAUCACCCUGGUAAACUCCCUUGGCAGCAGAUCGCAUACU	53.7 nM	60.2 nM	79.7 nM	24 nM	75.3 nM
AAUUGGGUUGGUGAGGUGGUUGGAGGCGAUACCAGCGUGGAAACACGCCCUUGGCAGCGCCAGGACAUGAGGAUCACCCAUGUUC [Ostrava]	19.6 nM	36 nM	22.1 nM		
GAUGAACUAUUUGAUACCAGACUACAUGAGGAUCACCCAUGUGAGUUUCGUCCUCUGCCAGUCCCUUGGCAGCAAAUAGUUUAUC [XTheo B #8]	15.8 nM	36.7 nM	14.3 nM		
CGUGGUGGGACGGAUACCAGCCACCGCGGCAACGCAACAUGAGGAUCACCCAUGUUGGGUGGCCCUUGGCAGCUGUCCUGCGGCG [#1 Same State - Theophylline B Attempt #26 (HarryS)]	9.91 nM	15 nM	11.4 nM		
ACAUGAGGAUCACCCAUGUAAUGGCACGAUACCAGCUGAUCCCGUGGCCCUUGGCAGCGUCCGGUGUGGUCCGCCGGGUUGGACC [HHHMULLIN]	59 nM	49.1 nM	36.2 nM	31.1 nM	26 nM
AACCACGAGUCGGCCGCCACUUGCAACUAGUUUCAGAAGCAGAAACAUGAGGAUCACCCAUGUCGAAGGACCGGGACUUUACAGG [theeternabot_sameState_MS2_Trp_B_18]	21.6 nM	23.2 nM		17.4 nM	
UGUAGUACCAGACAUGAGGAUCACCCAUGUCGAGGACCGGUACGGCCGCCACUCGGCAGUUUGCGUCCUCAGGUACUCCGGGUAA [Dianreti]	14.4 nM	18.5 nM		14.9 nM	
ACUACAUGAGGAUCACCCAUGUGUACUGAAGGAGCGGCGGAAACGCCAGGUAGGUCGCAGUACACCUCAACCAGCGGUCCUAAGU [EAA NP+V+V2 #1]	30 nM	85.9 nM	51.1 nM	115 nM	38.2 nM
CUCUUCCGGAAGGAUACCAGCUACAUGAGGAUCACCCAUGUAGGAGCGGGUUUCUAAUGUAGCCCUUGGCAGCCUUAGCCCGUCG [Querarra]	15.9 nM	36.5 nM	18 nM		
UCACAUGAGGAUCACCCAUGUGUCAGAGAAGGAGCGGCCGCAAGGCCAGGUAGGUCGCUCGGGUAUGGUGAGGUUCACCCGUGUG [#1 Exclusion - Arginine A Attempt #13 (Inspired by cyborg)]	28.3 nM	73 nM	56.7 nM	57 nM	47.3 nM
UGGGUCGGAUGAGUAAAUUGUCCGACGUAUCGAGGACCGGUACGGCCGCCACUCGGUUGUACAUGAGGAUCACCCAUGUCAGGGU [#1 Same State - Tryptophan A Attempt #16 (HarryS)]	40.5 nM	351 nM	206 nM	536 nM	436 nM
GCUAGCCGAAAGGCUAGCAGCGCUACAGAAGGAGCGUGCGAAAGCACAGGUAGGUCGCUGAACAUGAGCAUCAGCCAUGUUGCGC [SSAA - Alter Amptam #2 V2+NP]	14.8 nM	18.5 nM	11.7 nM	18.6 nM	12.2 nM
GUCAGAACAUAUCAUGUUCUGGCACUGGAAGGAGCGAGCGAGAGCUCAGGUAGGUCGCCAGAACAUGAGGAUCACCCAUGUAAUA [(A)''-(M)'-(A)'(Arg1)-(Arg2)-(M1)-(M2)_Design11]	50.5 nM	95.2 nM	49 nM	296 nM	63.4 nM
GUUAUGGACCUGGAUACCAGCUGGUACAAGGGCGGUCUACAUGAGGAUCACCCAUGUGUCAGCCCUUGGCAGCCAGCAACCGGCA [Teraus]	9.36 nM	12.5 nM	8.95 nM		
